B1: SEC23B (natural protein)
chain: MATYLEFIQQNEERDGVRFSWNVWPSSRLEATRMVVPLACLLTPLKERPDLPPVQYEPVLCSRPTCKAVLNPLCQVDYRAKLWACNFCFQRNQFPPAYGGISEVNQPAELMPQFSTIEYVIQRGAQSPLIFLYVVDTCLEEDDLQALKESLQMSLSLLPPDALVGLITFGRMVQVHELSCEGISKSYVFRGTKDLTAKQIQDMLGLTKPAMPMQQARPAQPQEHPFASSRFLQPVHKIDMNLTDLLGELQRDPWPVTQGKRPLRSTGVALSIAVGLLEGTFPNTGARIMLFTGGPPTQGPGMVVGDELKIPIRSWHDIEKDNARFMKKATKHYEMLANRTAANGHCIDIYACALDQTGLLEMKCCANLTGGYMVMGDSFNTSLFKQTFQRIFTKDFNGDFRMAFGATLDVKTSRELKIAGAIGPCVSLNVKGPCVSENELGVGGTSQWKICGLDPTSTLGIYFEVVNQHNTPIPQGGRGAIQFVTHYQHSSTQRRIRVTTIARNWADVQSQLRHIEAAFDQEAAAVLMARLGVFRAESEEGPDVLRWLDRQLIRLCQKFGQYNKEDPTSFRLSDSFSLYPQFMFHLRRSPFLQVFNNSPDESSYYRHHFARQDLTQSLIMIQPILYSYSFHGPPEPVLLDSSSILADRILLMDTFFQIVIYLGETIAQWRKAGYQDMPEYENFKHLLQAPLDDAQEILQARFPMPRYINTEHGGSQARFLLSKVNPSQTHNNLYAWGQETGAPILTDDVSLQVFMDHLKKLAVSSAC
B2: SEC23A (natural protein)
chain: MTTYLEFIQQNEERDGVRFSWNVWPSSRLEATRMVVPVAALFTPLKERPDLPPIQYEPVLCSRTTCRAVLNPLCQVDYRAKLWACNFCYQRNQFPPSYAGISELNQPAELLPQFSSIEYVVLRGPQMPLIFLYVVDTCMEDEDLQALKESMQMSLSLLPPTALVGLITFGRMVQVHELGCEGISKSYVFRGTKDLSAKQLQEMLGLSKVPLTQATRGPQVQQPPPSNRFLQPVQKIDMNLTDLLGELQRDPWPVPQGKRPLRSSGVALSIAVGLLECTFPNTGARIMMFIGGPATQGPGMVVGDELKTPIRSWHDIDKDNAKYVKKGTKHFEALANRAATTGHVIDIYACALDQTGLLEMKCCPNLTGGYMVMGDSFNTSLFKQTFQRVFTKDMHGQFKMGFGGTLEIKTSREIKISGAIGPCVSLNSKGPCVSENEIGTGGTCQWKICGLSPTTTLAIYFEVVNQHNAPIPQGGRGAIQFVTQYQHSSGQRRIRVTTIARNWADAQTQIQNIAASFDQEAAAILMARLAIYRAETEEGPDVLRWLDRQLIRLCQKFGEYHKDDPSSFRFSETFSLYPQFMFHLRRSSFLQVFNNSPDESSYYRHHFMRQDLTQSLIMIQPILYAYSFSGPPEPVLLDSSSILADRILLMDTFFQILIYHGETIAQWRKSGYQDMPEYENFRHLLQAPVDDAQEILHSRFPMPRYIDTEHGGSQARFLLSKVNPSQTHNNMYAWGQESGAPILTDDVSLQVFMDHLKKLAVSSAA

Molecular target: SAR1B (human, UniProt Q9Y6B6 1-198)
Sequence (Q9Y6B6 whole entry): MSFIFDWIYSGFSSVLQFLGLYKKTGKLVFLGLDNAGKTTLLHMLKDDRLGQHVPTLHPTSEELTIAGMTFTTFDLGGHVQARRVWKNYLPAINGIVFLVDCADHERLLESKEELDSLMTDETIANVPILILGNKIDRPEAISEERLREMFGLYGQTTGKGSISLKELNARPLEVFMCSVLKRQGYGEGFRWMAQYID
Assay: liposome flotation

Row | Binder | fold binding relative to SAR1A, with SEC31A-af added | fold recruitment relative to SAR1A
1 | B1 | ~5 fold | ~5 fold
2 | B2 | ~5 fold | ~5 fold
